# Source: the DeepSol protein solubility set
# Experiment: soluble on expression in E. coli; label from the status in PepcDB or PDB records
row,Sequence,soluble on expression in E. coli
1,MFPSGHNEKWTRGYQRENSLLHHDDEFRSFQRRTDCPQHFYQQTNGYEHSLFGEKAGFHEASAQNLLMHLASQISPMEFAKLQLELLASQNKQRPHRGAGFGSYLMSPPATVSSSRSTVLCCNPAPPYASHCQSPAASDDFGHHFGSFDSMSAYNFHNNNQQQRREAHVSRDGKSFDQGNIYTAEDVHTVVKNHRNENNQRVVSNKVFVGGISHMMNRKIINKFFGQFGTVFVDWPVKQKPNSRGKSIAIGSYSYLFLVYSDEQSVIKLMSACHRNSQNDFFVSVPGFRDMIQIRPWFIYNGFYILEKARHNRIIDIHRTVFLGGLPRIVTAEEIAQMFSEFGVVLLVTIDIDQDYGYPKGAARVTFERDSAFNRALEKKFLKFDNIDSSKTMIEIKPYVMEDVGCDECGGLWFNPFLSIYDHLKCAKDDHQKEQKMAEIKNFNMWSSRSPFSLNSGDGHDDLITKMDAGFKKNCNLACTYSNRENEKNETEMGARKFLEMVKSFGLEKEKTVTVNGNEYPIGPDLWDKFLPAPKYDVGTEPVRMNPEAKLQQFLRMKRTNVYSNKSAYCKEAPCRQYYCPSCSNKLHSGPNQHTLLPAG,soluble
2,MNYVPDTSVIVDGRFTAFISEREGSNVILPEAMLSEIEHQANEGRAIGFAALEELKKLRKMESEGKISIEIEGERPKEWQIKRAKSGEIDEMIRQVAFQYDATLVTGDIIQRDVAIVKGITVEYLSPPEKIIKNIEE,not soluble
3,MSLIPSSGPSAKKVVSLGQQSEAQIPEVELIDVNHAVAQSLYKAQVNQSFTQFGDGYASTGTLNIGDVLDIMIWEAPPAVLFGGGLSSMGSGSAQQTKLPEQLVTARGTVSVPFVGDISVVGKTPGQVQEIIKGRLKKMANQPQVMVRLVQNNAANVSVIRAGNSVRMPLTAAGERVLDAVAAVGGSTANVQDTNVQLTRGNVVRTVALEDLVANPRQNILLRRGDVVTMITNPYTFTSMGAVGRTQEIGFSARGLSLSEAIGRMGGLQDRRSDARGVFVFRYTPLVELPAERQDKWIRQGYGSEAEIPTVYRVNMADAHSLFSMQRFPVKNKDVLYVSNAPLAEVQKFLSFVFSPVTSGANSINNLTNEGHHHHHH,soluble
4,MGSDKIHHHHHHMSALLEVKGLNVSFRQDGRISQAVRGVSFTVNRGETVALVGESGSGKSVSALSTVSLLGDSAIVEGSVTYDGQEMIGASEQRLMDVRGNDISFIFQEPMTSLNPLHTIRKQMAESLALHQGLVGAAALERILELLVKVGIRDPETRLDAYPHQLSGGQRQRVMIAMALANKPDILIADEPTTALDVTIQAQILELLADLQREENMGMLFITHDLGIVRRIADRVCVMKAGEIVESGSTEEIFANPRHPYTRKLLAAEPKGRPDPVPAGAEEVARTDHLRVWFPIQRGFLRRTVGHVKAVNDASISVRAGETLGIVGESGSGKTTLALAIMRLIGSEGGITFRGEDVRSWSTRELRRLRKDMQIVFQDPFGSLSPRMTCAQIISEGLAIHKVDPHRAPRELVAEVMQEVGLDPATMDRYPHEFSGGQRQRIAIARAMVLRPRLLVLDEPTSALDMTVQVQIVALLRDLQRKYGLAYLFISHDLKVVRAMSHKVIVMRQGDVIEMGETEALFTNAQTDYTRSLIAAAG,not soluble
5,MGSDKIHHHHHHMLITFNFEVHQPHRLNKEINQNGNTLWEKYVDTKLNKEVFNKVANKCYIPTNELILELIDEYDFKVNYSITGVFVEQALEFNDYVLDLFKDLVKTGNVELIAETYHHSLTSLFETEDEFIEDIEMHRKMYKEIFGFKAKVFRNTELIYNNRIAKIAKDLGFKAIFTEGIEKILGWRSPNYLYQSPDGMKILLRNYRLSDDIGFRFSARDWDQYPLTADKYAIWLASTPGEVINIYMDYETFGEHHWKETGIFEFLRYLPIEIAKHEHLEVVNVSEVVDRLEPRGEIYVHEFATISWADTERDVSAWLGNKMQRISFEKLKDIGKFIKENSNKLKKLNKFDEIYKMYKVLQTSDNLYYQSIKGLSDMSVHNYFSHFDTPFDAYASYLNILYDFEYYIKELLAKSEFDKNNRRKDGQKQYEKDDEVKKESLINTNIIVAKDDKTESIYIEDEEGKKNKRYERDEGFIIA,not soluble
6,MLRRDFLKLLAAATTIAATGPVMAACSRDDNSATSGKAATDTIRIAAIGGPGEGLNINEAMSTATWAAMYAVYESLVIAGDSAPAFQLAKSVEPNKDATMWTVTLRDAPLFSDGSPVTAADVVASLKVVAKNPMRGMTYADVDVDKLKAIDDSTVEIHLTRPRADFVDAVLGVNSLVYKNGDPGTTIGSGPYVVESGDSGQGWKLAANEHFPTDRRISQSLEIQVIADADARLRAVDSGAVDLAMDLPATAARSLKNAQAWIPGPADSKALLFVLNTAVAPFNDAEVRRAVKISLDRKAMVDVALDGAGTVGADIPGFGFKDYPEGISEVRRDLDAARQIFKDKGIKELTLVTADFTPGMNDGADIAAKQLADAGVKVTVEKRDPTTYFADMAALRALPFFASYIVNRSLQSALPFMTGSHAMFNLSGFGTSGDWDKRLAAAQAETNDSQRAALLKKLAVEMQRDGGDVLWGYANEVHGRADGIPDVPVSQSVPVPTTK,not soluble
7,MIKLAPAALKADLQVRQERVRIAMEEEGYDALLVTSNVNLLYLFGSIYGGAAYLPAEGEPIFFVRRPQVIEEGNVCPIRKLEDIPALIQSRGGVLPRRIMLENDESSYSDIKRQHSIFPNAEYGNATALLRRLRMIKTPGEIELFRRTAAIHGEVYACIPSVFRPGMTDREFQVEIEHLMRNYGSEGIFRTFGSAMEIHMGNVIVGDNAESPSPYDFAMGGGGTDALPLGADGSPMKEGMCVMVDMAGNYSAYISDMTRSYAIGKVPDEARRLHDLSREIQAKVMETAEPGMSCADLYKRSVEMAEEAGAADKFMGTKQQAKFVGHGIGLQINEMPVLMARSKEILTPGMVIAFEPKFVLPGIGAVGNENSFLVTESGVEKLTVCSEELIDLLAVAKQ,not soluble
8,MTNRQWETLREYDEIKYEFYEGIAKVTINRPEVRNAFTPKTVAEMIDAFSRARDDQNVSVIVLTGEGDLAFCSGGDQKKRGHGGYVGEDQIPRLNVLDLQRLIRIIPKPVIAMVKGYAVGGGNVLNVVCDLTIAADNAIFGQTGPKVGSFDAGYGSGYLARIVGHKKAREIWYLCRQYNAQEALDMGLVNTVVPLEKVEDETVQWCKEIMKHSPTALRFLKAAMNADTDGLAGLQQMAGDATLLYYTTDEAKEGRDAFKEKRDPDFDQFPKFP,soluble
9,MSLKNIRHIYYVSENTGLLAKDSGKSLLCQFPGVEFQEELLPFIRTKDDAQRTINAIREKCGEEKPIIFSTIFDPEINKILQHEDVILLNICEPFLTQLEGMLGKNALRASGHSRNVDQQIMSNRVDAIHYTISHDDGTAIMDYEEADLIIVGVSRSGKTPISVFLATQMGIKTANYPLVEQDLTFCQLPEDIIKNKHKVVGLSISPDVLHTFREQRYKGSHYAQMSTCKRETLQSKRIFEKYDLPVVFSDARSIEETATQVAQELSKQWNPIFEGHHHHHH,soluble
10,MGSDKIHHHHHHMRNILEIVKFWFYDYDVTATEIKANVIKIHCNNKSYILKEKGSIKQLLVEINVLEQLEEKGVKAQKLVKTSNSEKYVVYKERYYCLYEYVVGSVLEIKDPENLKNLGSLIGEEIAKLHQALNSVNSNNELVKRELYKLVYEWALPNLEKNEHVDQDVVRTMNQIHSDFKKTITSLRKQIIHRDMHLSNVIFKDNEFQGFIDFELLERNVRVFDLCYCCTSILSELHSDEELRGKWQHIISKIFEGYNKQSILTREELQAIWYVMLSIQVIFITYFVQLPDLLKLNEEMFFWIFANKETIEELIERSVQI,not soluble
11,MSQQPGVLPENMKRYMGRDAQRMNILAGRIIAETVRSTLGPKGMDKMLVDDLGDVVVTNDGVTILREMSVEHPAAKMLIEVAKTQEKEVGDGTTTAVVVAGELLRKAEELLDQNVHPTIVVKGYQAAAQKAQELLKTIACEVGAQDKEILTKIAMTSITGKGAEKAKEKLAEIIVEAVSAVVDDEGKVDKDLIKIEKKSGASIDDTELIKGVLVDKERVSAQMPKKVTDAKIALLNCAIEIKETETDAEIRITDPAKLMEFIEQEEKMLKDMVAEIKASGANVLFCQKGIDDLAQHYLAKEGIVAARRVKKSDMEKLAKATGANVITNIKDLSAQDLGDAGLVEERKISGDSMIFVEECKHPKAVTMLIRGTTEHVIEEVARAVDDAVGVVGCTIEDGRIVSGGGSTEVELSMKLREYAEGISGREQLAVRAFADALEVIPRTLAENAGLDAIEILVKVRAAHASNGNKCAGLNVFTGAVEDMCENGVVEPLRVKTQAIQSAAESTEMLLRIDDVIAAEKLRGAPDMGDMGGMPGMGGMPGMM,soluble
12,MGSDKIHHHHHHMKNYALLNGAYDNKTMYDFKPVRADNTYLYDSQNRKYLDLRSGLWNTSLGYIDSLYQRVSKRFDQVLNKKLPYLDIHSFQHDIYDEVAQKVLELTGHAFKRVLYTNSGSENTELALKIADYTNKKGENNRILAFKDSYHGTFFGGVSVSGIDQEINSSFYPKYGEVTFIDYPKSAEQEKNVLDYIANVASFYDVMMIEPILASAGIYFASTDFFNALLKLLRKNQVLIVFDEVATGFFKTGKPFYFQQLSEKPDILCLSKAINNGITSFGCVCVNEEVDAKLQKNPKTMEHFSTQNGNLLGLESANIVLDYYLKSRDVIKGKVKDISDSISNVLDSQNVFYRNQGIMTAIRTESNQSLQLMKSLEKLGILTYLYVNEEEEGLSIMPPININLNVLEKALKLISKKIESQNSF,not soluble
13,MGRIRQTFIKRTGEELIEKFADKFTSDFEENKKAVEEVAMISTKPLRNRIAGYVTAKVKKMNALEHHHHHH,not soluble
14,MAALFQEASSCPVCSDYLEKPMSLECGCTVCLKCINSLQKEPHGEDLLCCCCSMVSQRNKIRPNRQLERLVSHIKELEPKMKKILQMNPRMRKFQVDMTLDADTANNFLLISDDLRSVRSGLITQNRQDLAERFDVSVCILGSPRFTCGRHYWEVDVGTSTEWDLGVCRESVHCKGKIQLTTELGFWTVSLRDGSRLSASTVPLTFLLVDRKLQRVGIFLDMGMQNVSFFDAESGSHVYTFRSVSAEEPLRPFLAPSIPPNGDQGVLSICPLMNSGTTDAPVRPGEAK,soluble
15,MSLSISFNNIPSALRVPLTYIEFDNTKAVSGPPTALHKVLMLGTKLATGSAKAGEAVRVSAYAQAKTLFGRGSQLAEMVKTFKAHNSTLDLWVLPLDEAPSGAKATGSVQITGTATQAGTFSLMIAGNNYKTAVTSGDTADVVAGKLQKLIAADQDVPVVATVAGNTITLTCRFKGETGNEIDLRCNYYSGEAFPEGLKATITDMKNGAVNPDMSVAITGLGAEWWNYIINPFTDTESLNLLRADLVKRWGPLKQIDGICFMAKRGTHAEVTTFAEQRNDYLFSLLATHKAPQPAYLWASAYAAVVAGSLAIDPARPVQTLVMDLLPPSMSDRWDLPERNTLLYSGVSTYTVNAGSQPQVEAAITMYRKNAFGDNDESYLYVETIATLSYLRYAIRSRITQKFPRHKLANDGTRIGPGQAIVTPKIIRNELLALFTELEFAGLVEDFEQFNQTLFVERDSNNPCRVNVLSNENLVNQFRIYAHAIQFILEGHHHHHH,soluble
16,MGSDKIHHHHHHMAENNTPQETEQDQEARFREEFEVGGKDRQLSEEEQLEQLGSYIDAHYPVPDFTPPWAGGAGDPDPADRYIAHLPDRTTHTAMIMLGSGLDHSMPGVAFIGGVSVDDVPEVGGAIFHPSNPTGRWAVSFHSGGWWRGSGDALEFQWRPEVAAAAELSGTTILDLDYPLAPGHNLHDMNEVVGKAVGYARHHNPVSITGWGYSSGAALAAINASLFDALVLTFPDLGSVEKLPAEIRGDAVVPAAAAWPTTFVQIAAQDEIAERPGELGDATVKEYVSRHRISTPKVAREKITDVAEFLKTVC,not soluble
17,SLLLRLCRWLRLLGYPTVAAHEVVDPTKVEDEDEVLVEFCREHDALLITRDRQLARRARAVLITADSVPEQIAEVLEFLGDEAFLDPDESRCPECNARVRRVTAENPGPFEVTWECPECRRKYWVGGHWRDMEETIDRVKKALRRVQRGHLRG,not soluble
